Source: IntAct's records for PubMed 23213219

B1: UL37 immediate early glycoprotein (Human cytomegalovirus (strain AD169) (HHV-5)), P16778 (parent)
chain: MSPVYVNLLGSVGLLAFWYFSYRWIQRKRLEDPLPPWLRKKKACALTRRSRHRLRRQHGVIDGENSETERSVDLVAALLAEAGEESVTEDTEREDTEEEREDEEEENEARTPEVNPIDAEGLSGLAREACEALKKALRRHRFLWQRRQRARMLQHNGPQQSHHAAVFCRVHGLRGFQVSVWLLLTLLWSTGHGVSVRCTYHGTDVNRTSNTTSMNCHLNCTRNHTQIYNGPCLGTEARLPLNVTFNQSRRKWHSVMLKFGFQYHLEGWFPLRVLNESREINVTEVHGEVACFRNDTNVTVGQLTLNFTGHSYVLRAIAHTSPFESYVRWEETNVTDNATSSENTTTVMSTLTKYAESDYIFLQDMCPRFLKRTVKLTRNKTKHNVTVTGNNMTTLPVWTPECKGWTYWTTLSVMWRNRRSALLRAKSRALGHWALLSICTVAAGSIALLSLFCILLIGLRRDLLEDFRYICRDEGSSSTKNDVHRIV

Variants of: B1
Settings: with bax_human BAX

Variant | effect of a mutation on the interaction
R146E | decreasing interaction strength
R139E | decreasing interaction strength
L143A | decreasing interaction strength
